Target: T1, recombinant cynomolgus CCL2 (cynomolgus monkey, UniProt P61274 24-99)
T1 construct: also called cyCCL2; cynomolgus monkey CCL2
Assay: Gyrolab sandwich assay; detection reagent
Method: A Gyrolab™ based method was used in this example. Recombinant cynomolgus CCL2 samples were prepared in assay buffer (PBS, 0.1% (v/v) Tween-20, 1% BSA) and analyzed on a Gyrolab Xplore. […] All reagents and samples were transferred to a 96-well PCR plate and loaded into the instrument together with a Gyrolab BioAffy 200 nL disc (Gyros Protein Technologies AB). A three-step assay protocol (200-3W-001) was selected. […] Each reagent reaches the column at the same time after a short spinning step is applied to the disc. The columns were washed with PBS with 0.05 Tween after each step and finally laser induced fluorescence values were recorded within the instrument. A non-linear 4-parameter curve-fitting function (Wiemer-Rodbard) was applied to the averaged raw data to obtain a calibration curve.

B1: humanized anti-CCL2 antibody 11K2 (CCL2-0002) (antibody, V domains shown)
VH: QVQLVQSGAEVKKPGSSVKVSCKASGLTISDTYMHWVRQAPGQGLEWMGRIDPANGNTKFDPKFQGRVTITADTSTSTAYMELSSLRSEDTAVYYCARGVFGFFDYWGQGTTVTVSS
VL: DIQMTQSPSSLSASVGDRVTITCKATEDIYNRLAWYQQKPGKAPKLLISGATSLETGVPSRFSGSGSGTDYTLTISSLQPEDFATYYCQQFWSAPYTFGGGTKVEIK
modifications: Used as a digoxigenin or Alexa 647 conjugate; conjugation sites not stated.
notes: Detection reagent; also called Humanized 11K2; 11K2-Dig
binding result: binds

— US20230393125A1 (Hoffmann-La Roche, published 2023)
